Entries after “also recorded” stand apart in the source; their conditions may differ. One block for each molecule: values may come before it. Ends that are not written are not given here.
How the values were obtained:
[1] = system: human monocytes; experiment: Calcium flux in human monocytes; assay type: cell-based; conditions: for calcium flux: human monocytes, Example 8; for calcium release: freshly prepared human monocytes, up to 250 nM
Experimental: (§1) Ca^2+ mobilization responses were performed using the intracellular ratiometric fluorescent dye, lndo-1. Cells were loaded with Indo-1/AM (3 μM; Molecular Probes, Eugene, Oreg.) in culture medium (45 min, 20° C., 10^7 cells/ml). After dye loading, cells were washed once with 10 ml PBS) and resuspended at 10^6 cell/ml in HBSS containing 1% FBS. Cytosolic [Ca^2+] release was determined using excitation at 350 nm using a Photon Technology International fluorimeter (excitation at 350 nm, ratioed dual emission at 400 and 490 nm).
The human recombinant chemokines, leukotactin, MlP-1α, three known CKβ8 variants CKβ8(1-99), CKβ8(25-99), CKβ8-1(1-116) and a novel NH2-terminal truncated form of CKβ8-1, CKβ8-1 (25-116) were obtained from R&D Systems (Minneapolis, Minn.). Human monocytes were generated from buffy coats (Stanford Blood Center, Palo Alto, Calif.) following a standard protocol. Briefly, PBMC were isolated by standard density gradient centrifugation (Ficoll-Paque-Plus, Pharmacia). Monocytes were purified using CD14 Microbeads (Miltenyi, Auburn, Calif.) magnetic positive selection. Human neutrophils were isolated from fresh peripheral blood from healthy individuals by gradient centrifugation on Ficoll-Hypaque (Hyclone, Calif.).
The activity of the CCL23 variants was tested on freshly prepared human monocytes and neutrophils using the calcium flux test described in Example 1.
Human monocytes were either generated from buffy coats (Stanford Blood Center, Palo Also, Calif.) or from fresh blood of healthy individuals following a standard protocol. Briefly, PBMC were isolated by a Ficoll-Paque gradient centrifugation (Ficoll-Paque-Plus, Pharmacia). Monocytes were purified by CD14 Microbeads (Miltenyi) magnetic positive selection. Human neutrophils were isolated from fresh blood by dextran sedimentation and gradient centrifugation Ficoll-Paque gradient centrifugation. All cells were washed and resuspended (1×10^7/ml) in RPMI medium with 10% FBS.
as §1, with “an” for “the”, “Indo-1.” for “lndo-1.”, “Probes (Eugene, Oreg.))” for “Probes, Eugene, Oreg.)”, “cells/mi).” for “cells/ml).”, “(10” for “with 10”

[2] = target: T1, human FPRL1 (Homo sapiens, UniProt P25090); experiment: Migration of FPRL1-L1.2 cells; assay type: cell-based; conditions: for migration of FPRL1 expressing cells: FPRL1-L1.2 cells, ChemoTx
T1 construct: Full length cDNA encoding FPRL1 was cloned, using the polymerase chain reaction (PCR), from genomic DNA isolated from undifferentiated HL-60 cells; expressed in transfected cells; linearized FPRL1/pcDNA3.1, electroporation
T1 sequence (P25090 1-351): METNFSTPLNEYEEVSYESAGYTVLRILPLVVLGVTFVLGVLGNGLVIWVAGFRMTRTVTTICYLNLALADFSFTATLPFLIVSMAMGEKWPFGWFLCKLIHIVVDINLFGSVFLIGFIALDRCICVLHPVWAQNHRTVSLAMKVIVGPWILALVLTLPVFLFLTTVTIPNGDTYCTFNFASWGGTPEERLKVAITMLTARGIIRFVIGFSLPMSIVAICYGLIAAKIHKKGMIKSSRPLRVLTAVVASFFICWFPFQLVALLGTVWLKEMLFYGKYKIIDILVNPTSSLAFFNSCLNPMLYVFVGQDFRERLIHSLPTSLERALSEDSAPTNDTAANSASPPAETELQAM
Experimental: Migration assays were performed on monocytes and neutrophils. Human monocytes and neutrophils (prepared as in Exampe 2) were harvested and resuspended in chemotaxis medium (CM). The CM consisted of Hank's buffered salt solution (Gibco, Mass.) containing CaCl2 (1 mM) and MgSO4 (1 mM) with added 0.1% BSA (Sigma, St. Louis, Mo.). The assays were performed in 96-well ChemoTx® microplates (Neuroprobe, Mass.). Leukotactin, MlP-1α and chemokines (CKβ8(1-99), CKβ8(25-99), CKβ8-1(1-116) or CKβ8-1(25-116), prepared as in Example 1) were added to the lower wells (final volume 29 μL), and 20 μL of cell suspension (5×10^6 cells/mL for monocytes; 2.5×10^6 cells/mL for neutrophils) added to the polycarbonate filters (5 μm pore size for monocytes; 3 μm pore size for neutrophils). After incubation for 90 min (37° C., 100% humidity, 5% CO2), cells were removed from the upper surface of the filter by scraping. Cells that migrated into the lower chamber were quantified using the Quant cell proliferation assay kit (Molecular Probes, Oreg.).
The ability of CKβ8-1 (25-116) to elicit the migration of the FPRL1 expressing cells was examined. Test conditions were as in Example 5.
The chemotactic activity of chemokines (CKβ8(1-99) and CKβ8(25-99), SHAAGtides (SEQ ID NO:1 and SEQ ID NO:2) and W peptides 1 and 2 (obtained as in Example 6) on FPRL1-L1.2 cells was determined in migration assays. The chemokines were prepared as in Example 1. The SHAAGtide sequences SEQ ID NO:1 and SEQ ID NO:2 were prepared as in Example 8. FPRL1-L1.2 cells were prepared as in Example 6.
The migration assays were performed in 96-well ChemoTx® microplates (Neuroprobe) using the protocol described in Example 5.

[3] = target: T2, CCR1 (Homo sapiens, UniProt P32246); experiment: 125I-MIP-1α binding competition, HEK293-CCR1 cells
T2 construct: full length cDNA encoding CCR1 was cloned by the polymerase chain reaction (PCR) from genomic DNA isolated from human peripheral blood cells; expressed in transfected cells; pcDNA3.1 vector)
T2 sequence (P32246 1-355): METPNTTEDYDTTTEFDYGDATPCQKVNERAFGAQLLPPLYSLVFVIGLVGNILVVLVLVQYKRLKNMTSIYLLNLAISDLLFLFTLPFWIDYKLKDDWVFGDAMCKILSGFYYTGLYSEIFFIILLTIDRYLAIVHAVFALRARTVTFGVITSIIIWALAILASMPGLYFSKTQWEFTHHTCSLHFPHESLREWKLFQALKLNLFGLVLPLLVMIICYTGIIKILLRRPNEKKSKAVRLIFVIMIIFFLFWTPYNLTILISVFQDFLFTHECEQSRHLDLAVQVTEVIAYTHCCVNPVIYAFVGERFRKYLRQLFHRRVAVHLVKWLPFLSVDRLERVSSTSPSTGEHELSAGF
Experimental: The binding characteristics of CCL23 variants was compared in human CCR1 expressing cells. […] Reactions mixtures were aspirated onto PEI-treated GF/B glass filters using a cell harvester (Packard). The filters were washed twice (25 mM HEPES, 500 mM NaCl, 1 mM CaCl2, 5 mM MgCl2, adjusted to pH 7.1). Scintillant (MicroScint-10; 35 μl) was added to dried filters and the filiters counted in a Packard Topcount scintillation counter. Data were analyzed and plotted using Prism software (GraphPad Software, San Diego, Calif.).

Molecule: MLWRRKIGPQMTLSHAAY [SEQ ID NO: 6]
- calcium flux [1]: robust calcium flux

- migration of FPRL1 expressing cells [2]: migrated the transfectants
Molecule: MLWRRKIGPQMTLSHAAG [SEQ ID NO: 1]
- calcium flux [1]: robust calcium flux

B1: CKβ8(25-99): known truncated CKβ8 variant, human recombinant chemokine from R&D Systems (protein, listed as Homo sapiens)
chain: RFHATSADCCISYTPRSIPCSLLESYFETNSECSKPGVIFLTKKGRRFCANPSDKQVQVCMRMLKLDTRIKTRKN
- calcium release [1]: slightly higher calcium stimulation

- fold less potency than CKβ8(1-99) ([3]; displacement of bound 125I-MIP-1α from CCR1): 3-4 fold
B2: CKβ8-1(1-116): alternatively spliced form of CKβ8, 116 amino acids, human recombinant chemokine (protein, listed as Homo sapiens)
chain: RVTKDAETEFMMSKLPLENPVLLDMLWRRKIGPQMTLSHAAGFHATSADCCISYTPRSIPCSLLESYFETNSECSKPGVIFLTKKGRRFCANPSDKQVQVCMRMLKLDTRIKTRKN
- calcium release [1]: poor activity

- migration of FPRL1 expressing cells [2]: migrated the transfectants
- EC50 ([2]; FPRL1 expressing L1.2 cells, read-out: half-maximal cell migration): 30 nM
- IC50 increase of truncated variant versus full-length variant ([3]; HEK293-CCR1): one fold
- maximal receptor stimulation compared with leukotactin ([1]; monocytes, 100 nM): at least two fold higher
B3: CKβ8-1(25-116): novel NH2-terminal truncated form of CKβ8-1, SEQ ID NO: 16, human recombinant chemokine (protein, listed as Homo sapiens)
chain: MLWRRKIGPQMTLSHAAGFHATSADCCISYTPRSIPCSLLESYFETNSECSKPGVIFLTKKGRRFCANPSDKQVQVCMRMLKLDTRIKTRKN
- migration of FPRL1 expressing cells ([2]; listed as CKβ8-1 (25-116)): migrated in a bell-shaped dose-dependent manner; also recorded: higher than observed with the synthetic peptides WKYMVm and WKYMVM
- calcium release [1]: unique calcium flux with extended calcium release
- calcium flux [1]: robust calcium flux

— patent US8637043B2, “Compositions useful as ligands for the formyl peptide receptor like 1 receptor and methods of use thereof” (Chemocentryx, Inc., priority 2001, dated 2014)
